Source: the DeepSol protein solubility set

Assay: soluble on expression in E. coli; label from the status in PepcDB or PDB records

| Sequence | soluble on expression in E. coli |
| --- | --- |
| MHIDNIENLSDREFDYIVVGGGSAGAAVAARLSEDPAVSVALVEAGPDDRGVPEVLQLDRWMELLESGYDWDYPIEPQENGNSFMRHARAKVMGGCSSHNSCIAFWAPREDLDEWEAKYGATGWNAEAAWPLYKRLETNEDAGPDAPHHGDSGPVHLMNVPPKDPTGVALLDACEQAGIPRAKFNTGTTVVNGANFFQINRRADGTRSSSSVSYIHPIVEQENFTLLTGLRARQLVFDADRRCTGVDIVDSAFGHTHRLTARNEVVLSTGAIDTPKLLMLSGIGPAAHLAEHGIEVLVDSPGVGEHLQDHPEGVVQFEAKQPMVAESTQWWEIGIFTPTEDGLDRPDLMMHYGSVPFDMNTLRHGYPTTENGFSLTPNVTHARSRGTVRLRSRDFRDKPMVDPRYFTDPEGHDMRVMVAGIRKAREIAAQPAMAEWTGRELSPGVEAQTDEELQDYIRKTHNTAYHPVGTVRMGAVEDEMSPLDPELRVKGVTGLRVADASVMPEHVTVNPNITVMMIGERCADLIRSARAGETTTADAELSAALA | soluble |
| AHHHHHHGSNSKEFRKIALVGASKNPAKYGNIILKDLLSKGFEVLPVNPNYDEIEGLKCYRSVRELPKDVDVIVFVVPPKVGLQVAKEAVEAGFKKLWFQPGAESEEIRRFLEKAGVEYSFGRCIMVETSNKKIFLEV | soluble |
| MGSDKIHHHHHHLDDYDDDIYDMQAGMPFNAALATVVTPSEIPGEAMIESDNDGVAYVVNPDKLTRFETNNPGQRIFYTYINADNPTGDASKKGPFISIDYLQKILTKRMDTLKENEEDIYGHDGINLITPIMGKTHLTLMFQILGFNSNIKHRISLVATEGTVPDANGYMAVELRHNAEGDRQEYPSSGYVSFPLLDVPGYKEGKLQGFKIKMNTINNGEETVTVSYNKSKSTNFPFIQKGISNTKIK | not soluble |
| MGSDKIHHHHHHMGLFNIFDVAGSGMSAQSLRLNTTASNIANADSVSSSIDKTYRSRHPIFEAEMAKAQSQQQASQGVAVKGIVESDKPLLKEYSPDHPMADGDGFIYKPNVNVMEEMADMISASRSYQMNVQVAEAAKSMLQQTLGMGK | not soluble |
| MIEISTSATSTTVTIEGDLDLSTRPQFHAATAKLGAVRRPLLVIDASRITFLDSTGAAFLISLADATRKRGGAAVLRGADERVLFVLETCGALDFFRLDPEPGLQEGDGGTRLRG | not soluble |
| AHMAMIKMSPEEIRAKSQSYGQGSDQIRQILSDLTRAQGEIAANWEGQAFSRFEEQFQQLSPKVEKFAQLLEEIKQQLNSTADAVQEQDQQLSNNFGLQ | soluble |
| MRAFKAHLRGLSPYPYKKEEAPVKLDQNESPFDLPGALKEEALGRLRAIPWNRYPEIHAESLRKRLSALLDWPEEGIVLAPGSNLLILALSLAAEEVLDLRPSFPHYAHAAKVAGTPYRAVPLGEGFSLDLKALLAAFRGGVLFLPNPHAPTGALFPEEALRALAERAKEVGGLLVVDEAYREFAGTDFRFLARENPHVALLRTFSKAFSLGGVRAGYLLGSPEVAGVVREVLPPFVLPAHTGAVLEVVLENPGYVEKVVEEVVAQRERVYRELLAHPTWRPYPSRTNFLLVRTPDAEEAFRHLLSQGVLVRRQDRYPGLAGCLRVTVGRREEMDAFLRAAFGVAYA | soluble |
| MGSSHHHHHHSSGLVPRGSHWGSPNSSSVDKLMDTIVAVATPPGKGAIAILRLSGPDSWKIVQKHLRTRSKIVPRKAIHGWIHENGEDVDEVVVVFYKSPKSYTGEDMVEVMCHGGPLVVKKLLDLFLKSGARMAEPGEFTKRAFLNGKMDLTSAEAVRDLIEAKSETSLKLSLRNLKGGLRDFVDSLRRELIEVLAEIRVELDYPDEIETNTGEVVTRLERIKEKLTEELKKADAGILLNRGLRMVIVGKPNVGKSTLLNRLLNEDRAIVTDIPGTTRDVISEEIVIRGILFRIVDTAGVRSETNDLVERLGIERTLQEIEKADIVLFVLDASSPLDEEDRKILERIKNKRYLVVINKVDVVEKINEEEIKNKLGTDRHMVKISALKGEGLEKLEESIYRETQEIFERGSDSLITNLRQKQLLENVKGHLEDAIKSLKEGMPVDMASIDLERALNLLDEVTGRSFREDLLDTIFSNFCVGK | soluble |
| MSLTDRTIGEAAELLGVTTRTLRHWDSIGLLQPSWRTTTDYRLYTEDDVERALQILIYRAAGIGLKDIAEVLDQPDSANQHLRRQRELLVEQIGQLHRMVRAVDEILGKDAISVKEKIEIFGEDLPKYQEEAFQRWGDTPEWKESQKIQEKMTKEDFQRAKDEHEGFVEKLIDASLRGIAPGSAEGNELALAHRASIGQWYTVSANKQVILARMYVEDERFNETYKGHASYLLTLIEALAQVEGVDLENEGHHHHHH | not soluble |
| RAGYWEWNVENGTILIDRQWAVISGYNSADFDMLTMEQWRELCHPADLGVVTKSIEELLDGSMERLELELRVRHKNGEWIRVLDCGKVTGRSK | not soluble |
| MRINFEKANSNHINIIFSWLKEPFIQEFWDNTQAHKDDILNFINGRTEPSSYADGKYVYWIASGNGHPFAMLMTIQETSEDEIDDIKLINLSKTGHSYGIDYMIGDKNYFGIGYGARTLIEFIDFFIKEVDPKADTFLIDPASDNPRAKHVYIKAGFEYVADFLMSGDVSGAGKLHHLLIKRIGLIK | not soluble |
| MIDVGGWYNKAELKAKGDEIVKEAKLATRREAESYRAALDAQAQQEARSKGVENTEHIRGMNPITPQEEAEFAAYLDESFSWIPSAFEGYGDPNPDDFDGIIKDLAKVEGTFGGSQSSTKNGDLAWTEKAKSEIEEWKGVFAENLYNNLLLPLPTIQDNHGKIAHVLTEAMKGTQNIYNGQKRDISQLADDTIKQLKKCGTRDGDNTKLGLTVAACLMGVAAAALALPSGGTSVYVTGIVMASISSSTIITNATVKPGDGDIGGKTVNDVIKSMSDGMSRISTEVSEQEQKVVKVLSKNYEMLTGLRQLGNSSKKPTPISPMRPTIADSKNPSSGLKPEGPQ | not soluble |
| MGSDKIHHHHHHMPSFKTYPLESIGYDEALRKQFRLVDEITRHFKGSEFLSRGDLGVVPGLNRPRYTKRVEEILAAYFHAEAAMLVRGAGTAAIRMALHSYLTAGQTLLVHDAPIYPTTQTSIEMMSLRTIRADFNDLNHQQLPESPDGILVQYTRQKPDDSYDMAKVLAFFKQRYPSVPIVTDDNYAVMKVHKIGVELGASLSCFSTFKLLGPEGIGCIVGDKSAIQKLRSANYSGGSQVQGHEAIDVLRGLTYAPVALAAQANVVTELVERLNGNEIPGISEAYVANAQSKVLLVEFNQPIAEKVLKYTNDLGAAPNPVGAESKYEIAPMFYRVSGTFKKFDPNLLKTTIRINPYRCGADTIMRILAESVEKVMA | not soluble |
| MYRSEVSKPQLENPNLVDRIIVIILPNYFYEYESVLKHITKENFGIIEKTVKHFKTEEVMEWKSADLESQDIWNLSDRLIDGPCMLLLCQRANAFIEMKEVAKYHNVIAKRMSSSDGIYYSKTTIAAYHDIIFFFPKYIDERAMLKHAKDYLSVEVWPKLSQGLARVAVERPDNPIKWLADYLHQLRQ | not soluble |
| MKIMIIGATGMAGQALVTTALNRGHQVVAVARSAEKLATLPSNPNLTSIVRDAFNLTTTDLSAVDAVVDAFATAPDHAYLHVDLATHLISQLRETTTPRVAFILGAGSLTTGDDAHLFVHDLEQDPHAASFISVPQNQLKELTFLRDVDNVNWFGVSPAADFHPGEAQPALLGTDTLLFNDQQQSGTSAGTMAVAILDELENPKHHQTRFTVADKLEHHHHHH | soluble |
| GSHMDSEIQMENLVERKHHRLARSERSGISDRDAKPTASIRDQLHTIVYRYPPTYVLSSEEQDLVWKFRFYLSSHKKALTKFLKCINWKLEDEVTQALWMLANWAPMDVEDALELLSPTFTHPQVRKYAVSRLAQAPDEDLLLYLLQLVQALKYEDPRHIVHLHGCIFPERDVVRSILDDNGSLLDQSSLSDLSATSSGLHASVIPANQRAASVLAAIKSDKSVSPGSAGGSGSGGQGSVALPNPSAPATPGSSSLPCDSNSNALMLAEGISFGSVPANLCTFLIQRACTNATLANYFYWYLSIEVEEVESVRKQDERAHDMYAMVLKMFLKVLENGNFNLRGIFYNLRKQRRFIDELVKLVKLVAKEPGNRNKKTEKFQKLLAEQDMFKVNFTNFEPIPFPLDPEIYITKIVPMRTSLFKSALMPAKLTFVTSIAHHEYAAIFKHGDDLRQDQLILQMITLMDKLLRRENLDLKLTPYKVLATSSKHGFLQYVDSCTVAEVLAREGNIHNFFRKHHPCDNGPYGISAEVMDTYIKSCAGYCVITYLLGVGDRHLDNLLLTTNGKLFHIDFGYILGRDPKPMPPPMKLSKEMVEAMGGISSEHHHEFRKQCYTAYLHLRRHANVMLNLFSLMVDATVPDIALEPDKAVKKVEENLQLGLTDEEAVQHLQSLLDVSITAVMPALVEQIHRFTQYWRK | soluble |
| MGSDKIHHHHHHMLKLCGFAASNYYNKVKLALLEKNVPFEEVLAWIGETDTTATPAGKVPYMITESGSLCESEVINEYLEAAYPQTPLLPRDPMQAGKVREIVTFLELYLELTARELYPEAFFGGKVSDNVKERQLKLLSRYVPAFAKLAKFSPYVAGDTFTLADCAAAVHLPLVSSCTKIIYGKDLLADLPVKEYLKTLSERPSVQKVNADRKANTELMLSRNK | not soluble |
| MLIPGAHYRGDVPMYPASVVKLFYLVACHEWLHSGMLQPDAELERAMRDMIVDSSNDATSLVVDMLTGTTSGPVLPPEPFRTWQYQRNIVNRYFQSLGWPELTQINVNQKTWCEGPYGREQEFVGRDRQNANRLTTNATAKLIHSIVGGVAVSASASQGMMELMERSLDPELLAQDPENQVQGFLGEGLPPGAKLWSKAGLTSWVRHDAAYIELPDRCPYTLVVFMENSTASKNTEVLPFISRQIASGILEHHHHHH | not soluble |
| RRSRKLERKKIVLGVTGSIAAVETVKLARELVRRGADVTAVMSRAARKIIHPYALEFATGKRVVTEITGSIEHVNLLGEYGDADLFLIAPCTANTISKIAQGIDDTPVTTFATTALGSGKPIIIVPAMHEAMMRNKAVLENIQRLIDMGIEFVQPRIEEGKAKFPSTETICLHVERELYPKEMKGKRVV | not soluble |
| MGSDKIHHHHHHMYPNLTSEQALLILQSARNPDKAYDLFAQAAEVRDKVFGKRLWWSSGSGGIFPCLVKPRCSYCTYYTEKLFPTDVLLTGLELIESLGIQQFHISGGTDLDEGYDEQLLELVQAIKTRSGLKLEINLGPSFRQETVLELKKLGIDSVTSSLECNTPAIFARAKPGDSLERRRELLHHCEEADMPSRSMMLLGLGETDQERIEHLFYLQQFKKLYQLRLSRFMPFPGTLYKDRSRCSPWDTALITAMARLILPNLEISLAAGNSNDDIPLWYLAGGGSQLLGVSITRKEPPATPDVDVYAIGEGAYVVDKRQQVARVLEGMNLEVTCEMPDYRALQSQF | not soluble |
| MSLASKSIRILSVEDHPVVREGLVSIIGSQPDMVLVAQATNGSDAIAQFRTHHPDITLMDLRLPGISGTDALISIRGEFPRARVIILTTSDSHTEIDRALRAGAAAYILKSMPMNEMLAVIRSVHAGARHIPQEVASRLAENIGEESLTSRELEVLHLIRDGHRNKQIADELSISETTVNFHIKNIVGKMGANDRTHAVTIAVRRGLLQEGHHHHHH | soluble |
| MGHHHHHHSHMGVAGTPGLPESPDKSPVGRKKSKGLATRLSRRRVSCRELGRPDCDGWLLLRKAPGGFMGPRWRRRWFVLKGHTLYWYRQPQDEKAEGLINVSNYSLESGHDQKKKYVFQLTHDVYKPFIFAADTLTDLSMWVRHLITCISKYQSP | soluble |
| GMNKEVDLSVSCLGKVKELKYDVIILPWGATEPHNLHLPYLTDCILPHDIAVEAAELALSRSGVRCMVMPPVPFGAHNPGQRELPFCIHTRYATQQAILEDIVSSLHVQGFRKLLILSGHGGNNFKGMIRDLAFEYPDFLIAAANWFEVVSPKGYFEAEIDDHAGESETSVMMHYHPELVNLAEAGDGESKPFAIASLNEKVAWVPRHWDKATVDSGVGNPKKATAEKGERYVKPIVEKLAGLFEEMAQHDLYE | soluble |
